As usually defined, the Km is the concentration of substrate that gives half-maximal velocity.

Data set [1] concerns Aspergillus terreus var. aureus FAD-GDH (flavin adenine dinucleotide glucose dehydrogenase), enzyme No. 1, host Pichia pastoris. Kind of data set: Michaelis constant of FAD-GDH enzyme No. 1. Type of data set: biochemical. Conditions: 110 kDa.
Substrate in data set [2]: OC[C@H]1OC(O)[C@H](O)[C@@H](O)[C@@H]1O
Put plainly: Michaelis constant of FAD-GDH enzyme No. 2. The class given is biochemical, Thermoascus crustaceus. The note with it: other: enzyme No. 2, host Escherichia coli, 60 kDa.

Substrate in data set [3]: OC[C@H]1OC(O)[C@H](O)[C@@H](O)[C@@H]1O
Put plainly: Michaelis constant of FAD-GDH enzyme No. 4. The class given is biochemical, Thermoascus crustaceus. Conditions: other: enzyme No. 4, host Saccharomyces cerevisiae, 90 kDa.

Substrate in data set [4]: OC[C@H]1OC(O)[C@H](O)[C@@H](O)[C@@H]1O
Kind of data set: Michaelis constant of FAD-GDH enzyme No. 3. The class given is biochemical, Thermoascus crustaceus. Conditions: other: enzyme No. 3, host Pichia pastoris, 90 kDa.

`OC[C@H]1OC(O)[C@H](O)[C@@H](O)[C@@H]1O` (stereo partly shown) [glucose]: the Km in data set [1] came to 82 mM.

B1: Thermoascus crustaceus FAD-GDH (flavin adenine dinucleotide glucose dehydrogenase), enzyme No. 2, host Escherichia coli (Thermoascus crustaceus) (protein)
chain: TSYDYIIVGGGTSGLVVANRLSEDSSVSVLVVEAGDSVYNNPNVTGTGAYGAAFGTSIDWAYQTIKQPYAGDLTQTIRAGKALGGTSTINGMAYTRAEDVQIDAWEAIGNQGWNWSTLFPYYLKSERFQIPINAQSAAGANWNPAYHGMNGPLTTGWTYEMMNGSMAEVLNATYQNLGISYLPDVNGGKMHGYTLFPRTVNRALDVREDAARAYYYPFESSRPNLSVMLNTYGNRIVWANATNTNSVTATGVEVTLSDGTVQTIQANKEVILSAGSLISPAILERSGVGNPTVLSRFGIPLVVNLTTVGENLQDQMNTEFIYLSNATFSGQSTFLGHPTAADLFGSNVTNVAKSVQSSLPHYAATVSEASNGTMSAAVLQKLFQLQYNIIFNNPTPIAEILVAPSGSKFITEYWALLPFARGNVHIGSANPLDRPVINPNYMMFEWDMQEQIASGKFVRKLYGTAPFTNWATGEATPGYSTLPANATDGQWAQWISSVSRSNFHPVGTAAMMPRDMGGVVDSNLVVYGTNNVRVIDASVLPLQVCGHLVSTLYAVAERASDLIKAGQV
As for B1, in data set [2], the Km was 4.6 mM.

B2: Thermoascus crustaceus FAD-GDH (flavin adenine dinucleotide glucose dehydrogenase), enzyme No. 4, host Saccharomyces cerevisiae (Thermoascus crustaceus) (protein)
chain: TSYDYIIVGGGTSGLVVANRLSEDSSVSVLVVEAGDSVYNNPNVTGTGAYGAAFGTSIDWAYQTIKQPYAGDLTQTIRAGKALGGTSTINGMAYTRAEDVQIDAWEAIGNQGWNWSTLFPYYLKSERFQIPINAQSAAGANWNPAYHGMNGPLTTGWTYEMMNGSMAEVLNATYQNLGISYLPDVNGGKMHGYTLFPRTVNRALDVREDAARAYYYPFESSRPNLSVMLNTYGNRIVWANATNTNSVTATGVEVTLSDGTVQTIQANKEVILSAGSLISPAILERSGVGNPTVLSRFGIPLVVNLTTVGENLQDQMNTEFIYLSNATFSGQSTFLGHPTAADLFGSNVTNVAKSVQSSLPHYAATVSEASNGTMSAAVLQKLFQLQYNIIFNNPTPIAEILVAPSGSKFITEYWALLPFARGNVHIGSANPLDRPVINPNYMMFEWDMQEQIASGKFVRKLYGTAPFTNWATGEATPGYSTLPANATDGQWAQWISSVSRSNFHPVGTAAMMPRDMGGVVDSNLVVYGTNNVRVIDASVLPLQVCGHLVSTLYAVAERASDLIKAGQV
For the molecule B2, the Km in data set [3] is on record as 3.2 mM.

B3: Thermoascus crustaceus FAD-GDH (flavin adenine dinucleotide glucose dehydrogenase), enzyme No. 3, host Pichia pastoris (Thermoascus crustaceus) (protein)
chain: TSYDYIIVGGGTSGLVVANRLSEDSSVSVLVVEAGDSVYNNPNVTGTGAYGAAFGTSIDWAYQTIKQPYAGDLTQTIRAGKALGGTSTINGMAYTRAEDVQIDAWEAIGNQGWNWSTLFPYYLKSERFQIPINAQSAAGANWNPAYHGMNGPLTTGWTYEMMNGSMAEVLNATYQNLGISYLPDVNGGKMHGYTLFPRTVNRALDVREDAARAYYYPFESSRPNLSVMLNTYGNRIVWANATNTNSVTATGVEVTLSDGTVQTIQANKEVILSAGSLISPAILERSGVGNPTVLSRFGIPLVVNLTTVGENLQDQMNTEFIYLSNATFSGQSTFLGHPTAADLFGSNVTNVAKSVQSSLPHYAATVSEASNGTMSAAVLQKLFQLQYNIIFNNPTPIAEILVAPSGSKFITEYWALLPFARGNVHIGSANPLDRPVINPNYMMFEWDMQEQIASGKFVRKLYGTAPFTNWATGEATPGYSTLPANATDGQWAQWISSVSRSNFHPVGTAAMMPRDMGGVVDSNLVVYGTNNVRVIDASVLPLQVCGHLVSTLYAVAERASDLIKAGQV
Regarding B3, the Km in data set [4] is recorded as 2.8 mM.

(Values after patent publication US20190194714A1, “REAGENT FOR GLUCOSE SENSOR, GLUCOSE SENSOR, METHOD FOR MANUFACTURING GLUCOSE SENSOR, AND GLUCOSE MEASURING DEVICE” (NATIONAL INSTITUTE OF ADVANCED INDUSTRIAL SCIENCE AND …, priority 2016, published 2019).)
